Article PMC12312386, “Multiple transactivation domains of EZH2 bind to the TAZ2 domain of p300 and stimulate the acetyltransferase function of p300” (Biochemical Journal, 2025)

Molecular target: p300 TAZ2 domain with 6xHis tag (p300_(TAZ2)-6×His) (human) (UniProt Q09472)
Assay: MST; p300_(TAZ2)-6×His labelled with RED-tris-NTA, constant at 10 nM; peptide varied by serial dilution; 25 mM Tris pH 7.5, 150 mM NaCl, 2.5 mM DTT; 1:1 stoichiometry fit

| Substance | Kd |
| --- | --- |
| EZH2_(TAD2) peptide (aa 167-185 of EZH2) (from UniProt Q15910 167-185) | 310 nM |
| EZH2_(TAD3) peptide (aa 220-231 of EZH2) (from UniProt Q15910 220-231) | 530 nM |
| EZH2_(TAD1) peptide (aa 142-154 of EZH2) (from UniProt Q15910 142-154) | 520 nM |
